Ends that are not written are not given here.

As a reminder, the Kd is the equilibrium constant for the complex coming apart.

Common to all, as to conditions: both partners purified
The target in experiment [1] is T1, GST-fused AF9-YEATS domain (peptide array) (human, UniProt P42568 1-138).
T1 construct: GST follows the N-terminal polyhistidine tag; source: purified (HisTrap HP, Superdex 200); not shown: GST, N-terminal, kept
T1 sequence (looked up): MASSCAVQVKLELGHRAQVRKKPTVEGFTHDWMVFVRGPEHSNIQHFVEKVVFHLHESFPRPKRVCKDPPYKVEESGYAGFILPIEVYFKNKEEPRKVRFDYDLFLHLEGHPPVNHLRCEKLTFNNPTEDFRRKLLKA
Briefly: peptide or protein array; MODified Histone Peptide Array (Active Motif); 10 μM GST-fused YEATS domain, 4 °C overnight; 50 mM Tris-HCl pH 7.6, 250 mM NaCl, 0.1% NP-40, 10% glycerol; detected with anti-GST.

For experiment [2], the target named is T2, GST-fused ENL-YEATS domain (peptide array) (human, UniProt Q03111 1-138).
T2 construct: GST follows the N-terminal polyhistidine tag; source: purified (HisTrap HP, Superdex 200); not shown: GST, N-terminal, kept
T2 sequence (looked up): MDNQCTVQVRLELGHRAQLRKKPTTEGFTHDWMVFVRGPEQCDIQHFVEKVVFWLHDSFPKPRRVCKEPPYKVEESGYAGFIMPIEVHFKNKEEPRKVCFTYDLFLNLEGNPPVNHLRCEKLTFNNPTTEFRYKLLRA
Described as above.

The target in experiment [3] is T3, AF9-YEATS domain (residues 1–138) for X-ray analysis and ITC (human, UniProt P42568 1-138).
T3 construct: AF9 YEATS domain, human, residues 1–138; cloned in the pCR2.1 vector encoding GST and the polyhistidine tag; source: purified (HisTrap HP, Superdex 200)
T3 sequence (looked up): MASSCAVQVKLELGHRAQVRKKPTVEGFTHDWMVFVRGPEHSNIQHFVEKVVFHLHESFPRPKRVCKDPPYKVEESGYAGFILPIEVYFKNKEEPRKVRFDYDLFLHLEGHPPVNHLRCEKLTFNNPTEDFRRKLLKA
Briefly: ITC; protein (100 μM) in the cell, peptide (1 mM) in the syringe; 15 °C; 20 mM Tris-HCl pH 7.6, 500 mM NaCl; single binding site model. In general terms: ITC needs no label: the signal is the heat of the interaction.

Experiment [4] concerns the target T3, AF9-YEATS domain (residues 1–138) for …. Nature of the experiment: crystal structure; sitting-drop vapor diffusion at 20 °C; AF9-YEATS with diacetylated H4 peptide; space group P1, two AF9-YEATS molecules in the asymmetric unit.

B1: H4 (1–19) tail peptide diacetylated at K5/K8 (MODified Histone Peptide Array) (peptide, UniProt P62805 2-20, looked up)
peptide: SGRGKGGKGLGKGGAKRHR
modifications: acetyl-lysine at K5 and K8
notes: histone H4, residues 1–19; source: bought: Active Motif MODified Histone Peptide Array
Consider B1, for which the binding result in experiment [1] and in experiment [2] was “binds” throughout.

B2: H4 (1–19) tail peptide tetra-acetylated at K5/K8/K12/K16 (MODified Histone Peptide Array) (peptide, UniProt P62805 2-20, looked up)
peptide: SGRGKGGKGLGKGGAKRHR
modifications: acetyl-lysine at K5, K8, K12 and K16
notes: as for B1
Consider B2, for which the binding result in experiment [1] and in experiment [2] was “binds” in each case.

B3: K9/K14-diacetylated H3 (1–19) peptide (peptide, UniProt P68431 2-20, looked up)
peptide: ARTKQTARKSTGGKAPRKQ
modifications: acetyl-lysine at K9 and K14
notes: histone H3, residues 1–19
As for B3, the dissociation constant Kd in experiment [3] amounted to 8.5 µM.

B4: H4 (1–12) K5ac/K8ac peptide (peptide, UniProt P62805 2-13, looked up)
peptide: SGRGK(Ac)GGK(Ac)GLGK
notes: histone H4, residues 1–12; also called H4K5ac/K8ac peptide; K5/K8-diacetylated H4 peptide
With B4, in experiment [4], the binding result was “binds”.

B5: K4/K9-diacetylated H3 (1–19) peptide (peptide, UniProt P68431 2-20, looked up)
peptide: ARTK(Ac)QTARK(Ac)STGGKAPRKQ
notes: histone H3, residues 1–19
The molecule B5 came in with a Kd in experiment [3] of 5.8 µM.

B6: H4 (4–16) K8ac/K12ac peptide (peptide, UniProt P62805 5-17, looked up)
peptide: GKGGK(Ac)GLGK(Ac)GGAK
notes: histone H4, residues 4–16; also called H4K8ac/K12ac peptide; K8/K12-diacetylated H4 peptide
Regarding B6, the binding result in experiment [4] is “binds”.

Source of the values: article PMC9293779, “Elucidation of binding preferences of YEATS domains to site-specific acetylated nucleosome core particles” (The Journal of Biological Chemistry, 2022).
